# Reference: patent US20060258581A1, “Methods and composition for derepressions of IAP-inhibited caspase” (priority 2001, published 2006)
# Where no end group is shown, it is not given here. [ ]: non-standard residue; d: D form. The star is where a group is joined. Phe(4-Cl) = N[C@@H](Cc1ccc(Cl)cc1)C(=O)O; dPhe(4-Cl) = N[C@H](Cc1ccc(Cl)cc1)C(=O)O; dPhe(4-F) = N[C@H](Cc1ccc(F)cc1)C(=O)O; 2Nal = N[C@@H](Cc1ccc2ccccc2c1)C(=O)O; d2Nal = N[C@H](Cc1ccc2ccccc2c1)C(=O)O; Fmoc = O=C(OCC1c2ccccc2-c2ccccc21)*; 2Thi = N[C@@H](Cc1cccs1)C(=O)O; Cha = N[C@@H](CC1CCCCC1)C(=O)O
# Tests used:
# XIAP-inhibited caspase-3 = biological target: T1, XIAP-inhibited caspase-3 (Homo sapiens, UniProt P98170); assay: IAP derepression assay: Ac-DEVD-AFC hydrolysis by caspase-3 in the presence of GST-XIAP; assay type: biochemical; details: for LC (lowest concentration with a ratio of 2 or higher in the derepression assay): tested at 0.4, 2, 10 and 50; for reversing XIAP-mediated suppression of caspase 3: 50 μg/ml, full length XIAP
# T1 construct: in a caspase derepression assay using full length XIAP; made in house; host or cells: bacteria
# T1 sequence (P98170 whole entry): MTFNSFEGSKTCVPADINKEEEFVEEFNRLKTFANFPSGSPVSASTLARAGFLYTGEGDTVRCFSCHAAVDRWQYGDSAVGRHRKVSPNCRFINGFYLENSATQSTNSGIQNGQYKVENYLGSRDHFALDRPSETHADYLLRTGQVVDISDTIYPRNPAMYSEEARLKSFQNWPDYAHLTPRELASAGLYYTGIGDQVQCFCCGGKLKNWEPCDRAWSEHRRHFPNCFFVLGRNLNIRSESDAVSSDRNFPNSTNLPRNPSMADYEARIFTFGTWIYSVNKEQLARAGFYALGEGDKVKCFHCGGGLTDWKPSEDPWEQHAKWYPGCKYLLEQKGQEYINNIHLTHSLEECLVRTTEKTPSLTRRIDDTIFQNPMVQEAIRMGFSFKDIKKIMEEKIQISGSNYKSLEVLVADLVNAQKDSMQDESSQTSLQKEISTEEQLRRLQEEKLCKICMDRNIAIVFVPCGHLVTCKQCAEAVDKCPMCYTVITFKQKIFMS
# Protocol: The ratio of Vmax for hydrolysis of Ac-DEVD-AFC in the presence and absence of the candidate mixture was calculated and used to identify those that contain an agent that derepresses an IAP-inhibited caspase.
# Each mixture was aliquoted in a 25 microliter volume and in duplicate to a well of a 96 well microtiter plate. […] Fluorescence of liberated AFC was immediately detected from each well for 30 minutes at 30 second intervals. The Vmax for hydrolysis of AC-DEVD-AFC from each well was measured using the softmax software package.
# [1] = test system: ALVA31 prostate cancer cells; assay: ALVA31 prostate cancer cell viability (XTT dye-reduction, trypan blue); assay type: cell-based; details: 24 hrs; peptides 40 μM, VP-16 100 μM
# Protocol: The in vivo effects of TPI 792-33 or TPI 792-35, either individually or in combination with the cytotoxic anticancer drug VP-16 (etoposide), on derepression of XIAP-inhibited caspase and viability of ALVA31 cells was determined as follows. ALVA31 prostate cancer cells were seeded onto 96 well plates (10^4 cells/well) in 100 μL RPMI containing 2.5% fetal bovine serum (FBS). […] After another 24 hrs-incubation, cell viability was measured by the XTT dye-reduction assay (Roche, Molecular Biochemicals; Indianapolis, Ind.) and trypan blue dye exclusion assay.
# [2] = test system: NCI panel of 60 tumor cell lines; assay: NCI panel of 60 tumor cell lines, 48 hours, protein-based colorimetric assay; design: species or system human
# Protocol: Selected polyphenylurea compounds were tested on the National Cancer Institute (NCI) panel of 60 tumor cell lines (see FIG. 28a and FIG. 29).
# GST-XIAP (human) = GST-XIAP (human) (UniProt P98170); assay: cell-based or functional assay
# Chain of GST-XIAP (human) (P98170 whole entry): as above
Molecule,LC (lowest concentration with a ratio of 2 or higher in the derepression assay) (XIAP-inhibited caspase-3) [µg/mL],other results
O=C(NC[C@@H](CC1CCCCC1)N(C[C@@H]1CCCN1CCC12CC3CC(CC(C3)C1)C2)C(=O)Nc1ccccc1)Nc1ccccc1 [TPI 1396-35],–,Activity* (relative caspase-3 activity: Vmax in the presence of compound / Vmax of controls having caspase-3 and XIAP) (XIAP-inhibited caspase-3; XIAP derepression assay): 2.5
"COc1cc([C@@H]2c3cc4c(cc3[C@@H](O[C@@H]3O[C@@H]5CO[C@@H](C)O[C@H]5[C@H](O)[C@H]3O)[C@H]3COC(=O)[C@H]23)OCO4)cc(OC)c1O [VP-16, etoposide, reference compound]",–,"cell viability, compound alone [1]: essentially no effect; average (mean) LD50 for the 60 cell lines [2]: 200 ± 2.5 µM"
(L-Ala)-(D-Trp)-(L-Trp)-(L-ThiAla) (A[dW]W[2Thi]) [TPI 1332-47],–,reversing XIAP-mediated suppression of caspase 3 (XIAP-inhibited caspase-3): Active
(L-Ala)-(L-Trp)-(L-Trp)-(L-ThiAla) (AWW[2Thi]) [TPI 1332-1],–,reversing XIAP-mediated suppression of caspase 3 (XIAP-inhibited caspase-3): Active
(L-Cha)-(D-Nal)-(L-Trp)-(L-ThiAla) ([Cha][d2Nal]W[2Thi]) [TPI 1332-41],–,reversing XIAP-mediated suppression of caspase 3 (XIAP-inhibited caspase-3): Active
H-AVPIAQK-NH2 [SMAC peptide (H-Ala-Val-Pro-Ile-Ala-Gln-Lys-NH2)],–,Vmax(mix + casp3 + XIAP)/Vmax(casp3 + XIAP) (GST-XIAP (human)): 3.8

# More lines, main results first:
LC (lowest concentration with a ratio of 2 or higher in the derepression assay) (XIAP-inhibited caspase-3) [µg/mL],Molecule,other results
10,(D-Nal)-(D-pClPhe)-(L-pClPhe)-(Lys-εFmoc) ([d2Nal][dPhe(4-Cl)][Phe(4-Cl)]K(Fmoc)) [TPI 792-9],–
2,(D-Nal)-(L-Nal)-(D-Lys-εFmoc)-(Lys-εFmoc) ([d2Nal][2Nal][dK](Fmoc)K(Fmoc)) [TPI 792-17],–
2,(D-Nal)-(L-Nal)-(L-pClPhe)-(Lys-εFmoc) ([d2Nal][2Nal][Phe(4-Cl)]K(Fmoc)) [TPI 792-15],–
2,(D-Nal)-(Lys-εFmoc)-(L-pClPhe)-(Lys-εFmoc) ([d2Nal]K(Fmoc)[Phe(4-Cl)]K(Fmoc)) [TPI 792-3],–
2,(L-ThiAla)-(D-pClPhe)-(L-pClPhe)-(Lys-εFmoc) ([2Thi][dPhe(4-Cl)][Phe(4-Cl)]K(Fmoc)) [TPI 792-27],–
2,(L-ThiAla)-(Lys-εFmoc)-(D-Nal)-(Lys-εFmoc) ([2Thi]K(Fmoc)[d2Nal]K(Fmoc)) [TPI 792-19],–
2,(L-ThiAla)-(Lys-εFmoc)-(L-pClPhe)-(pF-D-F) ([2Thi]K(Fmoc)[Phe(4-Cl)][dPhe(4-F)]) [TPI 792-22],–
